Experimental data: US20180369326A1 (LA JOLLA INSTITUTE FOR ALLERGY AND IMMUNOLOGY, published 2018)

Assays:
[1] = molecular target: T1, TANK-binding kinase 1 (TBK1), endogenous, mouse primary CD4+ T cells (mouse, UniProt Q9WUN2 1-729); experiment: co-IP (anti-ICOS IP, immunoblot), mouse primary CD4+ T cells (FIG. 2a)
T1 construct: also called endogenous TBK1
T1 sequence (looked up): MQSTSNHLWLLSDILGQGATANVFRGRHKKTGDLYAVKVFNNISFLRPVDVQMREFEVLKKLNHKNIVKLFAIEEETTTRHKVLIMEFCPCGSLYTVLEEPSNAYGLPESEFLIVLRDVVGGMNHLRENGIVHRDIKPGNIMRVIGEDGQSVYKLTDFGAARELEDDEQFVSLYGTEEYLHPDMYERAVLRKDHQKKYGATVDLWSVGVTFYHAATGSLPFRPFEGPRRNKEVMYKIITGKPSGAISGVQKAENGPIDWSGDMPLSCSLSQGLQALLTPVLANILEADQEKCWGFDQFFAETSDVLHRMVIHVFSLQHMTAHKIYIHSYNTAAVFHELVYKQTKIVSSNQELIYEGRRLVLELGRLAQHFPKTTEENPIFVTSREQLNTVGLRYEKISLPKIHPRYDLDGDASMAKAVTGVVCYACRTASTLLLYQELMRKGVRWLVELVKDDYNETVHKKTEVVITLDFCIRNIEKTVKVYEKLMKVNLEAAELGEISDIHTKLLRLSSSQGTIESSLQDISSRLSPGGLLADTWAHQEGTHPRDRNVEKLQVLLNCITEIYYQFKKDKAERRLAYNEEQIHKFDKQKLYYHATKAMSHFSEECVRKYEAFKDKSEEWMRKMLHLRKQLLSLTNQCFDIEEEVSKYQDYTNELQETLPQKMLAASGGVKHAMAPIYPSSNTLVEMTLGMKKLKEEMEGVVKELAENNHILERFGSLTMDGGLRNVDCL
Excerpt: IPs or whole cell lysates (WCL) were immunoblotted with the indicated Abs. 5% WCL was used as input to control for IP Western. […] Jurkat T cells transfected with WT ICOS, mIProx, YF or tailless (TL) ICOS plasmids were stimulated with anti-CD3 plus −ICOS mAbs prior to IP and immunoblotting. […] In vitro activated primary mouse CD4⁺ T cells were stimulated with anti-CD3 plus the indicated costimulatory mAbs, and IP or WCL were subjected to immunoblotting with the indicated Abs. Shown are representative of three experiments.
The human leukemic Jurkat T cell line, JTAg, was previously described (Li, J et al. J Immunol 2013, 191(1): 200-207; Rolf J et al., J Immunol 2010, 185(7): 4042-4052) and the HEK 293T cell line was obtained from ATCC. These cell lines have not been recently STR profiled but tested negative for mycoplasma contamination. JTAg cells in logarithmic growth phase were transfected with plasmid DNAs by electroporation and incubated for 24 hours.

[2] = molecular target: T2, TRAF2, endogenous, mouse primary CD4+ T cells (mouse, UniProt P39429 2-501); experiment: anti-ICOS IP and immunoblot, mouse primary CD4+ T cells restimulated with anti-CD3 plus anti-ICOS (FIG. 14)
T2 sequence (looked up): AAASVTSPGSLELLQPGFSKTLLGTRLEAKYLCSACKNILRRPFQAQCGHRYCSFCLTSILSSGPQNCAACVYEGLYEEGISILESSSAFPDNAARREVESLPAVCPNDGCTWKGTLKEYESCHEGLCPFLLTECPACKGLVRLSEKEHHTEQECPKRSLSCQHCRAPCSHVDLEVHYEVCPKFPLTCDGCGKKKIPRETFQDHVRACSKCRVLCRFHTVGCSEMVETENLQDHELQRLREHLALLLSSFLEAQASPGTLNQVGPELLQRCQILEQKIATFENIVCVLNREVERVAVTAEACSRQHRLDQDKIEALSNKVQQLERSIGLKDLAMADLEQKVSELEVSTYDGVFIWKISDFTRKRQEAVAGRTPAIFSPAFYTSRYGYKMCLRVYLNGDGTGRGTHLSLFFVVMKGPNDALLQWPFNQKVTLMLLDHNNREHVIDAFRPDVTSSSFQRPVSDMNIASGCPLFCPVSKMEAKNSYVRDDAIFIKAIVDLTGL

[3] = molecular target: T3, TRAF3, endogenous, mouse primary CD4+ T cells (mouse, UniProt Q60803 1-567); experiment: as above
T3 sequence (looked up): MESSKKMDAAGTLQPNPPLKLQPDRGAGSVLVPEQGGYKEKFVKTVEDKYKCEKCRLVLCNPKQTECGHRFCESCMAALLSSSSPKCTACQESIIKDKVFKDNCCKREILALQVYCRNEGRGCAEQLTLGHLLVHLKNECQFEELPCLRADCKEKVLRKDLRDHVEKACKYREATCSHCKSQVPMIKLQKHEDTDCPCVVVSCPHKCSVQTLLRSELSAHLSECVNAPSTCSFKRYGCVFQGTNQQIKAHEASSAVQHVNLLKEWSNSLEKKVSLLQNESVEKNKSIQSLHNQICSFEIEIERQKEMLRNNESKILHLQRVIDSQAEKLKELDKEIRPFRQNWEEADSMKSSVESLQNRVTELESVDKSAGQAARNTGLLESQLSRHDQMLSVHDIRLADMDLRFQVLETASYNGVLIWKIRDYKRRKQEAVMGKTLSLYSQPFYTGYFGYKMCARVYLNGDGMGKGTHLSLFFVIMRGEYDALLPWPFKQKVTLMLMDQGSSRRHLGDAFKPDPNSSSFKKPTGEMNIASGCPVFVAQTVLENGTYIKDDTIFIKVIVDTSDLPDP

[4] = molecular target: TRAF5, endogenous, mouse primary CD4+ T cells (mouse, UniProt P70191 1-558); experiment: as above
[5] = molecular target: T4, IKKϵ, endogenous, mouse primary CD4+ T cells (mouse, UniProt Q9R0T8 1-717); experiment: as above
T4 construct: also called IKKi
T4 sequence (looked up): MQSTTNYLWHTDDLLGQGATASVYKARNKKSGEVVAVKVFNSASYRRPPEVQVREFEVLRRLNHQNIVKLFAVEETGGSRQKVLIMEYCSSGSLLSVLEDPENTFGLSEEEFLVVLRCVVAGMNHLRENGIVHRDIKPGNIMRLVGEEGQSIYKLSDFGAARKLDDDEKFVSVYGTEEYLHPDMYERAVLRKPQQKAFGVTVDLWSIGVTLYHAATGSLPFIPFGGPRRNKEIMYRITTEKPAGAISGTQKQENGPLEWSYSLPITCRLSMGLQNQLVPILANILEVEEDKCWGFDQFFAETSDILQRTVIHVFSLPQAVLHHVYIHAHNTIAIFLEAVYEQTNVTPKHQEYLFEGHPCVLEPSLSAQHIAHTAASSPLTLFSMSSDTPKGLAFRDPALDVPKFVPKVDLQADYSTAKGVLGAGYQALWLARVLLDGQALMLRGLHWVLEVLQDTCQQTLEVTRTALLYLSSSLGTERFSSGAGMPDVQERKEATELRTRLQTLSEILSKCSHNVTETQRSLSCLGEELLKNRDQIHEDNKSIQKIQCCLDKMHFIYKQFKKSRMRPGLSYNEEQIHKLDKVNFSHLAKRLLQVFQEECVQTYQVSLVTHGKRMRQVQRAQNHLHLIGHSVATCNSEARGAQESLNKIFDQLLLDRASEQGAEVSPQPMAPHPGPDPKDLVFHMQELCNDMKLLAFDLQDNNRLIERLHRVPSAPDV

[6] = molecular target: p85α, the regulatory subunit of PI3K, endogenous, mouse primary CD4+ T cells (mouse, UniProt P26450 2-724); experiment: co-IP (anti-ICOS IP, immunoblot), mouse CD4+ T cells unstimulated or stimulated with anti-CD3, anti-ICOS or both (FIG. 6a)
p85α, the regulatory subunit of PI3K, endogenous, mouse primary CD4+ T cells, sequence (P26450 2-724): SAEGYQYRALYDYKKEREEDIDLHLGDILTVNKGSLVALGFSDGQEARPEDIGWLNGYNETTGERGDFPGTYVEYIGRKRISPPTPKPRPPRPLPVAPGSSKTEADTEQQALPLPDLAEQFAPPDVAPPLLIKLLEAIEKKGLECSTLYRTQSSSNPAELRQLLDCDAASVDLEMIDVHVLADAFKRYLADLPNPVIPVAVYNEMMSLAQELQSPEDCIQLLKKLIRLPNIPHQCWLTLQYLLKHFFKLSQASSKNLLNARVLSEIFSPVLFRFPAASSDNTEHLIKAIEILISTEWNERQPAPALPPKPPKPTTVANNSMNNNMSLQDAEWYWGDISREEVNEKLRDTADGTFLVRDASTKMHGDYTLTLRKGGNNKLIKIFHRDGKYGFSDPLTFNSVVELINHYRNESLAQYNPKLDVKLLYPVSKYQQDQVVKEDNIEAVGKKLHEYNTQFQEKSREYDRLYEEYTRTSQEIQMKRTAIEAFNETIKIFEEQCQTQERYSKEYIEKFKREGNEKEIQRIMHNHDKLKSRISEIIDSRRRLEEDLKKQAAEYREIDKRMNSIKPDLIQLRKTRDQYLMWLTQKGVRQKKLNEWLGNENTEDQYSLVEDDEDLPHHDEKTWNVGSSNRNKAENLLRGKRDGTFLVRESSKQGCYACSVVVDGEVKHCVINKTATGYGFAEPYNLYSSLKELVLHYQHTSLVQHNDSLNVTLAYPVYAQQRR

TRAF5, endogenous, mouse primary CD4+ T cells, sequence (P70191 whole entry): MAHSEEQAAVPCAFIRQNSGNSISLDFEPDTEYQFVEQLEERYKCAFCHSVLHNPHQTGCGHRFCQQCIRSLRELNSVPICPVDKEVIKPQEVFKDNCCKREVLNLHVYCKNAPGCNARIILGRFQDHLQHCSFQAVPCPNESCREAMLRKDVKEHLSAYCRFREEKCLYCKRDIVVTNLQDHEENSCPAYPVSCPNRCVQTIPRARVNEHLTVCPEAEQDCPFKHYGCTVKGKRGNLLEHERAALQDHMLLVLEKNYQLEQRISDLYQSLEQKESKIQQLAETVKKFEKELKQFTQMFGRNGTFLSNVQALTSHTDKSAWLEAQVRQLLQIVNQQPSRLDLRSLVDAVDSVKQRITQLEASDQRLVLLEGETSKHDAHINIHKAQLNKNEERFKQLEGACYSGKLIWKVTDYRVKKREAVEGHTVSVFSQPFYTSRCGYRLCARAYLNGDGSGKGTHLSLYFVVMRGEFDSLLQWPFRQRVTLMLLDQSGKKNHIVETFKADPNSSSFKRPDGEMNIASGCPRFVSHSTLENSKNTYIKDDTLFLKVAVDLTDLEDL

B1: ICOS, endogenous, of mouse primary CD4+ T cells (receptor)
chain: EINGSADHRMFSFHNGGVQISCKYPETVQQLKMRLFREREVLCELTKTKGSGNAVSIKNPMLCLYHLSNNSVSFFLNNPDSSQGSYYFCSLSIFDPPPFQERNLSGGYLHIYESQLCCQLKLWLPVGCAAFVVVLLFGCILIIWFSKKKYGSSVHDPNSEYMFMAAVNTNKKSRLAGVTS
binding result [1]: binds
binding result [2]: no binding
binding result [3]: no binding
binding result [4]: no binding
binding result [5]: no binding
binding result [6]: binds
